Measurements taken from patent US20140363432A1.

How the values were obtained:
[1] = biological target: recombinant hVEGF (165 amino acids) (human) (UniProt P15692); test: cell-based or functional assay
[2] = biological target: recombinant hVEGF (165 amino acids) (human) (UniProt P15692); test: 125I-hVEGF binding to bovine ACE cells with antibody (FIG. 3b); settings: scale: molar ratio of antibody to hVEGF
[3] = biological target: recombinant hVEGF (165 amino acids) (human) (UniProt P15692); test: competitive binding of 125I-hVEGF against unlabeled hVEGF, immune complexes precipitated, Scatchard analysis

Chain of UniProt P15692 (P15692 other isoform, or with tags, fused parts or gaps): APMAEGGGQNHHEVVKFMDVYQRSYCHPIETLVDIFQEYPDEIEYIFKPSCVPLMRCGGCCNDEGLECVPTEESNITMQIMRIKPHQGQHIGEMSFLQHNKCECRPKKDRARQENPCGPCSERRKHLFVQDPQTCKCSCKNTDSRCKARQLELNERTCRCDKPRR

inhibition of hVEGF mitogenic activity on bovine ACE cells [1]: > 90 % inhibition
molar ratio of hVEGF to antibody at complete inhibition of hVEGF binding to bovine ACE cells [2]: 250
Ka [3]: 1.2e+09 M⁻¹
Substance: anti-hVEGF monoclonal antibody produced by the A4.6.1 hybridoma
